Assay: soluble on expression in E. coli; label from the status in PepcDB or PDB records

| Sequence | soluble on expression in E. coli |
| --- | --- |
| MHHHHHHSSGRENLYFQGASEALKVVARCRPLSRKEEAAGHEQILTMDVKLGQVTLRNPRAAPGELPKTFTFDAVYDASSKQADLYDETVRPLIDSVLQGFNGTVFAYGQTGTGKTYTMQGTWVEPELRGVIPNAFEHIFTHISRSQNQQYLVRASYLEIYQEEIRDLLSKEPGKRLELKENPETGVYIKDLSSFVTKNVKEIEHVMNLGNQTRAVGSTHMNEVSSRSHAIFIITVECSERGSDGQDHIRVGKLNLVDLAGSERQNKAGPNTAGGAATPSSGGGGGGGGSGGGAGGERPKEASKINLSLSALGNVIAALAGNRSTHIPYRDSKLTRLLQDSLGGNAKTIMVATLGPASHSYDESLSTLRFANRAKNIKNKPRVNEDPKDTLLREF | soluble |
| HMVTLYTSPSSTSCRKARAWLEEHEIPFVERNIFSEPLSIDEIKQILRMTEDGTDEIISTRSKVFQKLNVNVESMPLQDLYRLINEHPGLLRRPIIIDEKRLQVGYNEDEIRRFLPRKVRSFQLREAQRLAN | soluble |
| SAEGEDVGWWRSWLQQSYQAVKERSTEALEFMKRDLTEFTQVVQHDTACTIAATASVVKEKLATEGSSGATEKVKKGLSDFLGVISDTFAPSPDKTIDCDVITLMGTPSGTAEPYDGTKARLYSLQSDPATYCNEPDGPPELFDAWLSEFCLEEKKGEISELLVGSPSIRALYTKMVPAAVSHSEFWHRYFYKVHQLEQEQARRDALKQRADQSISEEPGWEEEEEELEGIVPSPKEAKIPKETKTTTSPEDEPAPQSPCEETPVEPPAEATPSESSESISLVTQVANPAAAPEAPELPKDLSQKLFEASLEEQSLAEDEGETGPPPPPPSKPLTPAGRASGPEPRPPARVETLREEVPTDLRVFELNSDSGKSTPSNNGKKGSSTDISEDWEKDFDLDMTEEEVQMALSKVDASGELEDVEWEDWE | not soluble |
| MAMAKARKPREALLWALSDLEENDFKKLKFYLRDMTLSEGQPPLARGELEGLIPVDLAELLISKYGEKEAVKVVLKGLKVMNLLELVDQLSHICLHDYREVYREHVRCLEEWQEAGVNGRYNQVLLVAKPSSESPESLACPFPEQELESVTVEALFDSGEKPSLAPSLVVLQGSAGTGKTTLARKMVLDWATGTLYPGRFDYVFYVSCKEVVLLLESKLEQLLFWCCGDNQAPVTEILRQPERLLFILDGFDELQRPFEEKLKKRGLSPKESLLHLLIRRHTLPTCSLLITTRPLALRNLEPLLKQARHVHILGFSEEERARYFSSYFTDEKQADRAFDIVQKNDILYKACQVPGICWVVCSWLQGQMERGKVVLETPRNSTDIFMAYVSTFLPPDDDGGCSELSRHRVLRSLCSLAAEGIQHQRFLFEEAELRKHNLDGPRLAAFLSSNDYQLGLAIKKFYSFRHISFQDFFHAMSYLVKEDQSRLGKESRREVQRLLEVKEQEGNDEMTLTMQFLLDISKKDSFSNLELKFCFRISPCLAQDLKHFKEQMESMKHNRTWDLEFSLYEAKIKNLVKVKFLKGKSEERMKETLP | soluble |
| MGLTFENNTIENFDVQATFGMMNFLEVVAINERDGENNVTEEVREQRVTVYSSKLNDQVEIVIDPDYDVSGINYDDEIELTGNVTARGWLYTFKGYNDNVQTEQAFKVRAAGIKKVGAVKQTQAPQPKEKQENKQ | not soluble |
| MGSDKIHHHHHHMDNPVEEHSPTAQTPVLNLDNVPVGVPLEWPIVDADGTLLFATGTILATTDERNFLFGHFHPQRGDLLDAATQPAPESDAHADPGSPLTLKDMHLEIGALIGVRPQVGSGAPMHPCRIIGFAPNHALFVTPPMHDGRMLPMGLGENIEIVAIASHAVFRFVCTIEAICRSPFDYVVLSKPGVIRRLRERKSIRVRTHLAVRFGIGQSGESYEGLGLAKGVSALGMSLAASWTLGAVGDRLRLAFRLKSKDLDTEIETTAVIRNVQQGSGPGTPSTHGLELDQLDATQQMAMKVFVFDRQDDVVYWSSGLK | not soluble |
| MSDYCSNDASPFGDYDLPSDEPSPKYQKLNKNIFSPLSPTFELKFQSKLRVSGNSTSSTTSDDSDDESLHRSNQLKHLETLFKESILRTSFSRPGVSNTSCDEKLDLVSEDEKKRLRNTEAARRCREKIKRKTDDLETELTRLTARNEVMNQHRIRLLSQVEEQMRMLENIKSRNPELEAEIRYEAKKIVDTYTHQVETKRKAIQDYFDMTCNKLY | not soluble |
| MSLICSISNEVPEHPCVSPVSNHVYERRLIEKYIAENGTDPINNQPLSEEQLIDIKVAHPIRPKPPSATSIPAILKALQDEWDAVMLHSFTLRQQLQTTRQELSHALYQHDAACRVIARLTKEVTAAREALATLKPQAGLIVPQAVPSSQPSVVGAGEPMDLGELVGMTPEIIQKLQDKATVLTTERKKRGKTVPEELVKPEELSKYRQVASHVGLHSASIPGILALDLCPSDTNKILTGGADKNVVVFDKSSEQILATLKGHTKKVTSVVFHPSQDLVFSASPDATIRIWSVPNASCVQVVRAHESAVTGLSLHATGDYLLSSSDDQYWAFSDIQTGRVLTKVTDETSGCSLTCAQFHPDGLIFGTGTMDSQIKIWDLKERTNVANFPGHSGPITSIAFSENGYYLATAADDSSVKLWDLRKLKNFKTLQLDNNFEVKSLIFDQSGTYLALGGTDVQIYICKQWTEILHFTEHSGLTTGVAFGHHAKFIASTGMDRSLKFYSL | soluble |
| MGSSHHHHHHSSGRENLYFQGMVSVTFEPVGKKVEDEPDTILEIARRNGVLIRSDCGGKGVCGKCKVVVVDYRGSLSDITDHERKHLIEEEISKGYRLACQARVEEGRATIFIPPESRLERRKVAGLTIEKEVELNPAVRKVYAEIQPPSIEDQLPDYDRLTRALGDFSLDLETLSEMPKLLREAEWRVTATFWNGRLIDLEKGDVSDRCYGVAVDVGSSKIICHLVDLKSGETIATGYSDNPQVAYGEDIVSRITYASKSAENRKRLQTVVVETVNQIIAELCNESGVDLRHVYEVMIVGNSVMHHLFFGIEPRFIGVSPFTPAVRRGVSFPAEDVGLRINRKGYVSSLPLVAGFVGADAVANIAITGIHKAEEISMVIDIGTNTEIVIGNREKLGVCSAPSGPAFEGAHITFGMKAISGAIDSVRIERDEVIYTTIDNAKAKGLCGTGLIDLIAELYRNGIINRNGKFVKDHSRIIVDGVPKFVVAKAEETEFGKPITVSEKDINELLMAKGAIKSGWMILSERLGIEPDKIERIYLAGSFGRHINVENAKVIGLLPDIPSEKITFAGDTAVGGAKMALKSVRVRDEMEDVVSRLNYVELSVEKNFYSVFVRAIPI | soluble |
| MGKTYNVTRIIKLEVRDRIIPPTMKLPEGVVTSIGSNLTITCRVSLRLPTTDADVFWISNGMYYEEEDEDGDGRISVANKIYMTDKRRVITSWLNINPVKEEDATTFTCMAFTIPSISKTVTVSIT | not soluble |
| MAEPARARPKITPETQHYWDGAKQGELRLQRCDSCAHAYFPPRPFCPKCGSREVSVFKASGKGTLYSYVINHRPLAAGFTEPYAIAVVELEEGPRMMSNILECPQTPEALELDMKLEVTFQKIDDNLTLPQFRPAKG | not soluble |
| MAHHHHHHMLRGVTIKCGNVTNAVRVPSRFISMAPTRNEEKATQKRNKWEYILSLDEALYLSKEMGIKTTTEVQKIVMRSPPFSPDMSPFLIDNFLCSANRGSHSDEIAQIDQKLKALEERGDNSQESEKGEVQVALHNNEMNDTAQNREEDIINKILIDKFNKKRGKTFIHNDMEWLEESEGIGTNKRSSAYVYIKRGSGIVKVNDEEDLYIRWPYFYNRMDVLEPFYVTNTACVFDVFIKLKGGGISGQSKAARLAVGRALLNACPLIYDELKQHHILYEDMRQKLPKMPGRKKSRAMKQWSKR | not soluble |
| ARSTNTFNYATYHTLDEIYDFMDLLVAQHPELVSKLQIGRSYEGRPIYVLKFSTGGSNRPAIWIDLGIHSREWITQATGVWFAKKFTENYGQNPSFTAILDSMDIFLEIVTNPNGFAFTHSENRLWRKTRSVTSSSLCVGVDANRNWDAGFGKAGASSSPCSETYHGKYANSEVEVKSIVDFVKNHGNFKAFLSIHSYSQLLLYPYGYTTQSIPDKTELNQVAKSAVAALKSLYGTSYKYGSIITTIYQASGGSIDWSYNQGIKYSFTFELRDTGRYGFLLPASQIIPTAQETWLGVLTIMEHTVNN | soluble |
